Article PMC8085926

B1: HiYciA (Haemophilus influenzae Rd KW20) (protein)
chain: MSANFTDKNGRQSKGVLLLRTLAMPSDTNANGDIFGGWIMSQMDMGGAILAKEIAHGRVVTVAVESMNFIKPISVGDVVCCYGQCLKVGRSSIKIKVEVWVKKVASEPIGERYCVTDAVFTFVAVDNNGRSRTIPRENNQELEKALALISEQPL
B2: PP_4975 (Pseudomonas putida KT2440) (protein)
chain: MNFHTRKWVKPEDLNPNGTLFGGSLLRWIDEEAAIYAIVQLGNQRVVTKYMSEINFVSASRQGDIIELGITATAFGRTSITLKCEVRNKITRKSILTVDKMVFVNLGEDGLPAAHGRTEIKYVQDQFPDSAVE

Substrate: CCC(=O)SCCNC(=O)CCNC(=O)[C@H](O)C(C)(C)COP(=O)(O)OP(=O)(O)OC[C@H]1O[C@@H](n2cnc3c(N)ncnc32)[C@H](O)[C@@H]1OP(=O)(O)O
Assay: purified protein
Settings: hydrolysis of propionyl-CoA to propionate; conditions only in supplement

Row | Protein | Km | kcat | kcat/Km
1 | B1 | 26.84 µM | 490 s⁻¹ | 1.83e+07 M⁻¹ s⁻¹
2 | B2 | 144.13 µM | 1300 s⁻¹ | 9.02e+06 M⁻¹ s⁻¹
